The results in this text go back to the RNAGym collection of RNA variant scans (doi:10.7554/elife.90254).

B1: LINE1-full (parent)
chain: UACGUAGGUGGUUUUCCCCUGAUAGUGCUAAGGGGGCCUGGAAGUUUGGACUGGGCAGAGCUCAACACAGCGUGGCAAAGUGGCUGUGGCUAGACUGCCUCUCUGGAUUCCUCGUCACUCAGCAGGGCAUCUCUGAGAGAAAUGCC

Variants of B1 are the subject of this data set. Put plainly: self-cleavage, relative activity (ratio to wild type); higher = more cleavage; in vitro, sequencing; the parent is a self-cleaving ribozyme.
Consider U5C U130A, for which the self-cleavage amounted to 0.77. The result for A6U A142G reads 0.81; that for A6U A142C, 0.28; that for U9A C113U, 0.97. The result for U9A C113A reads 0.39.

Consider G7U A30G, for which the self-cleavage was determined as 0.78. For A6C A57G the value was 0.92; for A6G G7U, 1.33. For A6G G7A the value was 0.43; for G8A U81C, 1.25; for A6G C98U, 0.42.

With A6U U87G, the self-cleavage was 0.12. For A6G U85G the value was 0. For A6G U85C, the self-cleavage came out at 0.2. For A6G U85A the value was 0.

Regarding G7A A107G, the self-cleavage was 1.22.

Turning to G8A G48A, the self-cleavage is 0.44.

Take G7U U87C: the self-cleavage amounted to 0.18. The result for G7U U87A reads 0.12. Regarding G7C U85C, the self-cleavage was determined as 1.26.

On to U5G A141G, for which the self-cleavage was found to be 0.49. The result for A6U G126U reads 1.16. For A6U G126A the value was 1.8; for A6G U100C, 0.87; for G8C A142G, 1.21. The result for U5G U112A reads 0; that for A6U G41A, 1.52; that for A6G A94U, 0.3.

With A6G A94G, the self-cleavage was 0.31. On to A6U G137A, for which the self-cleavage was 1.53. The result for G7U U91A reads 1.12; that for U9A A78U, 1.65; that for U9A A78G, 1.13. For A6U A92G the value was 0.27. The result for A6U A92U reads 0.47; that for U5G G34C, 0.94; that for A6G U23G, 0.85. In the case of A6U G114A, the self-cleavage is 0. The result for A6G A30G reads 1.14; that for U9A A22U, 0.89; that for G8A U132C, 1.58. For A6U U62A the value was 0.06; for U9A A142G, 1.13; for G7U A57G, 0.12.

For the variant A6G U91C, the self-cleavage was 0.51.

Regarding G8U C56U, the self-cleavage was 0.28. The result for A6U G55U reads 0.4; that for U5C U62A, 0; that for U5G A50U, 0.38.

Take G7A U109C: the self-cleavage was 1.19. The result for G7C A140G reads 1.37; that for A6G A31G, 0.66; that for G7A U143C, 1.29.

Turning to G7U U45C, the self-cleavage is 0.86.

As to G8A U13C, the self-cleavage is 1.05. The result for A6U U52C reads 1.02; that for G7U U20C, 1.15; that for G8A U104C, 1.29. The result for G8A U104A reads 1.25. The result for G7U A140G reads 1.33; that for G7C U12G, 1.19; that for A6G G60U, 0.19.

G7C U102C: the self-cleavage amounted to 0. The result for A6G U104C reads 1.23; that for A6U A121G, 0.87; that for A6U A69G, 0.89. For A6G U52C the value was 0.72.

For G8C U46C, the self-cleavage was 1.13. For A6G A136G the value was 1.17. The result for G8U U15C reads 1.62; that for U5C U119C, 1.41.

Turning to G7U U9C, the self-cleavage came to 1.56. In the case of G8A A107G, the self-cleavage was 1.58. Regarding A6G A124G, the self-cleavage came out at 0.38. On to A6G A138U, for which the self-cleavage amounted to 0.67. The result for A6G A138G reads 1.11; that for G8A A121G, 0.54. For G8A A121C the value was 0.46.

For U9A C16U, the self-cleavage turned out to be 0.45.

With U5G U39C, the self-cleavage is 0.63. For U5C U47A the value was 0.92; for U5C U47C, 0.67; for A6U U13C, 1.25. The result for U9A A67G reads 0.58. For G7A A124C the value was 1.37.

For the variant G7A A124G, the self-cleavage turned out to be 0.6. The result for G7A C111U reads 0.35; that for A6U G32U, 0.54.

With U9A A140C, the self-cleavage was determined as 1.06.

For U9A A140G, the self-cleavage turned out to be 1.11. For A6U G53A the value was 0.9; for G7A U47C, 1.21; for G7U A107G, 1.36. The result for G8A C38U reads 1.41; that for A6G A121U, 0.99. The result for A6G A121G reads 1.14. Take G7A A141G: the self-cleavage turned out to be 0.69.

Take U9A A141G: the self-cleavage turned out to be 1.36. Turning to A6U U73C, the self-cleavage turned out to be 1.21. The result for A6G U20G reads 1.34.

For G8C U14G, the self-cleavage was 1.39. For G7U U85A the value was 0.13. As for U5C U132A, the self-cleavage worked out at 1.98. The result for G8A G86A reads 0.09; that for A6C C113U, 1.35. Regarding A6G U119C, the self-cleavage is 0.73.

Turning to A6U G105U, the self-cleavage is 1.71. The result for G8A A77U reads 1.23; that for U5G U100C, 1.15; that for G7U C123U, 1.39.

For G8A A65G, the self-cleavage came to 0.

Turning to A6G A59G, the self-cleavage is 0.1. For A6G C18U the value was 0.59. The result for U9A A31G reads 1.35. The result for G7C G48A reads 0.92; that for U9A C37U, 0.63. As for G7A U13C, the self-cleavage turned out to be 0.81.

Consider A6U U46A, for which the self-cleavage was determined as 1.07.

Consider G8C A121C, for which the self-cleavage was found to be 1.75. The result for U5C U23C reads 0.83. For A6U U81C the value was 1.06; for G7C U143C, 1.93.

As for U9A C99A, the self-cleavage stood at 0.67.

Consider G7C A69G, for which the self-cleavage is 0.79.

Regarding A6G U14C, the self-cleavage amounted to 0.61.

For the variant A6U C71U, the self-cleavage was found to be 1.15. As to A6G C66U, the self-cleavage is 0.15.

As for U5C U112C, the self-cleavage came out at 0.99.

Take U5C U112A: the self-cleavage came to 1.15. For the variant G7C A129U, the self-cleavage was determined as 1.17. The result for G7A U52A reads 0.89; that for A6U A67U, 0.22.

Regarding A6U A67G, the self-cleavage turned out to be 0.49.

Consider A6U A77G, for which the self-cleavage turned out to be 1.51.

For the variant A6G C145U, the self-cleavage amounted to 1.64. For G7U U115C the value was 0.79. For A6C A141G the value was 1.71.

In the case of A6U G54U, the self-cleavage was found to be 0.94.

Turning to G8A C131A, the self-cleavage is 0.51. As for U9A A121C, the self-cleavage came out at 0.46. For G8A A142G the value was 1.45; for G7C A92G, 0; for U9A C71A, 0.6. The result for G7A A129U reads 1.21; that for A6U A30G, 1.01; that for A6U A30U, 0.58. The result for U5C U73A reads 1.74; that for U9A C90A, 0.04; that for U9A C90U, 0. Turning to G8U A59U, the self-cleavage worked out at 0.63. Turning to A6G U15C, the self-cleavage turned out to be 0.84. For A6G U15A the value was 0.58; for G7A G54A, 0.4; for G8U C37G, 1.18. Consider G8U C37U, for which the self-cleavage was found to be 1.51. For G7A U26C the value was 2. Consider G8U U130C, for which the self-cleavage was 1.66.

On to G8A U119A, for which the self-cleavage is 2.47. The result for G8A U119C reads 1.1. For G7A A138G the value was 1.37; for G7C G40A, 1.27. The result for U9A A124U reads 1.2. With G8C U143A, the self-cleavage is 2.06. For A6G A22U the value was 1.11. The result for G7U U47A reads 1.2; that for G8C U39C, 0.91. On to G8U A124U, for which the self-cleavage is 1.47.
